Assay results: PMC5658623

Molecular target: PhaPTD from Halomonas bluephagenesis TD01 (Halomonas bluephagenesis TD01)
Experiment: SEC-MALS; Superdex 200 gel filtration connected to an eighteen-angle static light scattering system (DAWN HELEOS II); HBS buffer (1.5 mM Na2HPO4, 50 mM HEPS, 150 mM NaCl); sample at 1 mg/mL; 0.5 mL/min; 16°C

PhaPTD from Halomonas bluephagenesis TD01 (natural protein)
stoichiometry N: 3
